Measured values taken from patent publication WO2024096022A1 (dated 2024).
Blank lines part the entries; values can stand above or below the binder they belong to.

Tests used:
human AdipoR2 protein [1] = target: T1, human AdipoR2 protein (human, UniProt Q86V24 1-386); assay: fluorescent ligand binding to cells stably expressing human AdipoR2 (8200 Cellular Detection System)
T1 construct: Stably expressed on CHO cells together with EGFP as a separate expression marker; also called adiponectin receptor 2; hAdipoR2
T1 sequence: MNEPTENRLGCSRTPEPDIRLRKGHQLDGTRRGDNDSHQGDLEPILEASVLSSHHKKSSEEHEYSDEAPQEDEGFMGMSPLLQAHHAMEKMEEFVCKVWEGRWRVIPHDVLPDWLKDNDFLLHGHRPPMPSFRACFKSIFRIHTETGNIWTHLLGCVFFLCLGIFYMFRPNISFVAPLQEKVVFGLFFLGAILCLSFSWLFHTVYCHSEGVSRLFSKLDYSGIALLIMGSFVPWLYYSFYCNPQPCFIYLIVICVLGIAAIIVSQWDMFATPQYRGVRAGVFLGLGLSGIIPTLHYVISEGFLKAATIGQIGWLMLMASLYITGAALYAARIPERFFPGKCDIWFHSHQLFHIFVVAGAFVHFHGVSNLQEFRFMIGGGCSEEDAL

human AdipoR1 protein = target: T2, human AdipoR1 protein (human, UniProt Q96A54 1-375); assay: flow cytometry on human AdipoR1-expressing CHO cells against parental CHO cells
T2 construct: Stably expressed on CHO cells together with EGFP as a separate expression marker; also called adiponectin receptor 1; hAdipoR1
T2 sequence: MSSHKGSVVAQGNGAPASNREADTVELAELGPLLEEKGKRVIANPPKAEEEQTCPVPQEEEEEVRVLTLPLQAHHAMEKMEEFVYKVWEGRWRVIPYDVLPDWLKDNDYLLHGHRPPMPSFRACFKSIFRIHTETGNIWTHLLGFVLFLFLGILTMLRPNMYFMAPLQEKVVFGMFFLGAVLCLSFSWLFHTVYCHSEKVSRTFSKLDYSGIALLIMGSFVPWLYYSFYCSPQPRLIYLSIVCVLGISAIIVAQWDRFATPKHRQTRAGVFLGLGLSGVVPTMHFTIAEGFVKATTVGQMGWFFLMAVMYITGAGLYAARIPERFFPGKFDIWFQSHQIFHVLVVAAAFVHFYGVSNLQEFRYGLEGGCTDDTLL

human AdipoR2 protein [2] = target: T1, human AdipoR2 protein; assay: flow cytometry on human AdipoR2-expressing CHO cells against parental CHO cells

binding result (human AdipoR2 protein [1]): binds
B1: fluorescently labeled human plasma-derived adiponectin (ligand, UniProt Q15848 19-244, looked up)
chain: ETTTQGPGVLLPLPKGACTGWMAGIPGHPGHNGAPGRDGRDGTPGEKGEKGDPGLIGPKGDIGETGVPGAEGPRGFPGIQGRKGEPGEGAYVYRSAFSVGLETYVTIPNMPIRFTKIFYNQQNHYDGSTGKFHCNIPGLYYFAYHITVYMKDVKVSLFKKDKAMLFTYDQYQENNVDQASGSVLLHLEVGDQVWLQVYGEGERNGLYADNDNDSTFTGFLLYHDTN
modifications: fluorescent label (site not stated)

binding result (human AdipoR1 protein): binds | binding result (human AdipoR2 protein [2]): binds
B2: mouse-human chimeric antibody WT (antibody, V domains shown)
VH: DVKLVESGEGLVKPGGSLKLSCAASGFTFSSYAMSWVRQTPEKRLEWVAYISSGGDYIYYADTVKGRFTISRDNARNTLYLQMSSLKSEDTAMYYCTRALEAMDYWGQGTSVTVSS
VL: ETTVTQSPASLSMAIGEKVTIRCITSTDIDDDMNWYQQKPGEPPKLLISEGNTLRPGVPSRFSSSGYGTDFVFTIENMLSEDVADYYCLQSDNLPFTFGSGTKLEIK
